± gives the uncertainty stated by the source.
Assay: protein stability index of a GFP-peptide fusion (yeast GPS) (PSI 1-4); higher = more stable; sorted into four equal gates, so the index is relative within each strain
Method in brief: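 Tiled 17-residue yeast protein peptides were fused downstream of GFP in a plasmid that also expresses Cherry, and the pooled library was carried in yeast. Mid-log cultures in leucine-free medium were sorted into four equal gates by GFP/Cherry fluorescence ratio, and plasmids from each gate were PCR-amplified and Illumina-sequenced, with reads assigned to strains by barcodes. The protein stability index for each peptide was each gate's read frequency times its gate number, summed.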

Sequence	protein stability index (pdr5∆)	protein stability index (san1∆)	protein stability index (doa10∆)	protein stability index (ubr1∆)
LKRADYTAVDTAKLQMR [RPN14]	3.33 ± 0.23	2.76 ± 0.1		
LKRNRIRNARSIRAEAV [POP1]	2.44 ± 0.1		1.71 ± 0.15	2.59 ± 0.13
LKSESATSQYLKQDLKK [YGL172W/NUP49]	2.88 ± 0.072	2.9 ± 0.061	2.81 ± 0.079	2.95 ± 0.079
LKSKVIDSPELLSLIST [RPN7]	2.63 ± 0.045	2.4 ± 0.049	2.48 ± 0.038	2.61 ± 0.041
LKSPVLSKLCVPVANQF [QCR7]	2.45 ± 0.065	1.92 ± 0.053	2.22 ± 0.053	2.01 ± 0.031
LKTEAANVLDPSLRKLI [BRR2]	2.61 ± 0.059	2.9 ± 0.064	2.44 ± 0.052	2.68 ± 0.039
LKWSACTSLMDIIVAIK [IRR1]	2.72 ± 0.057	2.44 ± 0.16	2.65 ± 0.14	2.83 ± 0.071
LLAEYDNIYRNLQKIDK [MED4]	2.69 ± 0.042	2.61 ± 0.05	2.4 ± 0.048	2.32 ± 0.028
LLAKRLSERKAEKAEIR [RPS6A]	3.54 ± 0.11	3.18 ± 0.086	3.35 ± 0.092	3.33 ± 0.084
LLCALDRKDQDDRDHFG [RPB2]	3.28 ± 0.067	2.71 ± 0.1	3.22 ± 0.096	3.47 ± 0.05
LLERGRLRKRVTIIPLD [SMC2]	2.71 ± 0.059	2.26 ± 0.059	2.25 ± 0.06	2.12 ± 0.057
LLETKLRQQYEIELKKL [SWI1]	2.96 ± 0.1	3.17 ± 0.069	3.01 ± 0.12	2.92 ± 0.11
LLFINSSKLVDVYTLPS [YML103C/NUP188]	2 ± 0.05	1.98 ± 0.055	1.97 ± 0.043	2.01 ± 0.054
LLFWTDPRNLVNQTGST [YCG1]	2.66 ± 0.064	2.83 ± 0.055	2.41 ± 0.065	2.81 ± 0.038
LLGIDATVPSGRPETYI [RPO31]	2.32 ± 0.15		2.71 ± 0.15	
LLGKDNEDDALIYGISD [AAR2]	3.14 ± 0.14	3.11 ± 0.1	3.22 ± 0.12	2.7 ± 0.14
LLGPTLEDHTPPEDKPN [QCR10]	2.81 ± 0.064	2.94 ± 0.082	2.5 ± 0.057	2.94 ± 0.033
LLHSKPSLLLQKDQDGR [NAS6]	3.33 ± 0.13		3.22 ± 0.22	
LLIHRKGLTYLHLDYNF [PRP8]	1.28 ± 0.034	1.32 ± 0.079	1.77 ± 0.043	1.56 ± 0.048
LLLRCDDRVDKKFVSQI [POP3]	3.34 ± 0.066	3.03 ± 0.054	3.27 ± 0.11	3.22 ± 0.042
LLLSPDQWYCIDKLEDL [ITC1]	3.4 ± 0.11	3.22 ± 0.097	3.06 ± 0.11	2.48 ± 0.077

Sequence	protein stability index (pdr5∆)	protein stability index (san1∆)	protein stability index (doa10∆)	protein stability index (ubr1∆)
LLPTIKRTICKKCHRLL [RPR2]	2.36 ± 0.054	2.26 ± 0.11	2.32 ± 0.065	2.34 ± 0.034
LLQLIQSQPQEKFSEKM [ECM29]	2.02 ± 0.098	2.46 ± 0.093	2.49 ± 0.098	2.47 ± 0.071
LLRYGGAFTIALAYAGT [RPN2]	2.27 ± 0.11	1.91 ± 0.12	2.02 ± 0.084	2.24 ± 0.051
LLSENRSEKSTTNAQTK [SRP54]	2.84 ± 0.099	2.88 ± 0.09	2.86 ± 0.15	2.92 ± 0.064
LLSLNSVRSLQKRIENG [SRP68]	1.65 ± 0.063	2.1 ± 0.091	2.13 ± 0.069	2.25 ± 0.078
LLTLIVREYEQPDANKK [ISW2]		3.09 ± 0.2		
LLTPKSGEPIIAATQDF [RPO31]	2.57 ± 0.27		2.92 ± 0.16	
LLTVEEGQLKPGDGSSY [RPC25]	3.23 ± 0.24	2.83 ± 0.18	3.43 ± 0.15	3.27 ± 0.14
LLWTPKKLEITSDGALS [RPR2]	2.42 ± 0.048	2.61 ± 0.044	2.09 ± 0.047	2.4 ± 0.034
LMAQIFFGPTYYQRLRH [RPB2]	1.81 ± 0.032	2.08 ± 0.048	2.02 ± 0.035	2.04 ± 0.031
LMEASDAFRVHICGICG [RPB2]	1.83 ± 0.098	2.23 ± 0.11	2.08 ± 0.062	2.5 ± 0.072
LMEIHNILKVDSNSSSS [RGR1]	2.67 ± 0.06	2.63 ± 0.064	2.58 ± 0.06	2.42 ± 0.049
LMLGSVNLPGGILRRKS [RRP4]	1.46 ± 0.11	1.54 ± 0.14	1.96 ± 0.058	1.4 ± 0.047
LMRQGVLGIKVKIMRDP [RPS3]	2.33 ± 0.074	2.25 ± 0.083	2.4 ± 0.085	2.74 ± 0.051
LNAKYQSLGLDDLQKFN [ISW2]	3 ± 0.061	2.74 ± 0.049	3.03 ± 0.066	2.7 ± 0.044
LNCCGSVARVEDHDVHS [IRR1]	2.49 ± 0.065	2.41 ± 0.068	1.98 ± 0.079	2.45 ± 0.06
LNEMLNTRKNMSISLES [DIS3]	2.91 ± 0.066	2.63 ± 0.069	2.66 ± 0.053	2.95 ± 0.051
LNHILEKSTQLQQKHEL [YGR119C/NUP57]	2.91 ± 0.042	2.66 ± 0.034	2.52 ± 0.054	2.82 ± 0.035
LNISPFTFGLTVVQVYD [RPP0]	1.61 ± 0.052	1.55 ± 0.072	1.31 ± 0.043	1.2 ± 0.044
LNKEKLGPLFKKIVDDT [IRR1]	3.12 ± 0.12	3.22 ± 0.23	2.94 ± 0.099	2.94 ± 0.076

From the supplement of paper PMC9732359
